Measured values published in PMC11697773.

Target: human neonatal Fc receptor (FcRn) (human) (UniProt P55899)
Experiment: BLI; Octet; biotinylated human FcRn on streptavidin-coated biosensors, antibody soluble; equilibrium binding; PBSA pH 5.6; tips regenerated in PBSA pH 7.4

Kd: 0.107 µM
B1: F5111 antibody, wild type (hIgG1 lambda) (antibody, V domains shown)
VH: QLQLQESGPGLVKPSQTLSLTCTVSGGSISSGGYYWSWIRQHPGKGLEWIGYIYYSGSTYYNPSLKSRVTISVDTSKNQFSLKLSSVTAADTAVYYCARTPTVTGDWFDPWGRGTLVTVSS
VL: NFMLTQPHSVSESPGKTVTISCTRSSGSIASNYVQWYQQRPGSSPTTVIYEDNQRPSGVPDRFSGSIDSSSNSASLTISGLKTEDEADYYCQSYDSSNVVFGGGTKLTVL
